Experimental data published in the supplement of paper PMC9170038.

System: MS2 coat protein
Test: apparent KD of MS2 coat protein, switch ON state; designed switch direction (-1 OFF switch, 1 ON switch): -1; higher = weaker reporter binding
Conditions: FMN input: 0 or 200 uM; Eterna round: R93 (includes R88 designs)
Summary of the method: (§1)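 Values are apparent KD, taken as the median for each design of fits to normalised binding curves from individual clusters. The designed RNA switches were transcribed on-chip from Illumina sequencing clusters and exposed to SNAP-549-labelled MS2 coat protein at twofold increasing amounts from 0.7 or 1.5 nM to 3 µM. Titration used 100 mM Tris-HCl pH 7.5, 80 mM KCl and 4 mM MgCl2, without or with constant ligand.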

Question: How did the “apparent KD of MS2 coat protein” value turn out when “AAGAAGGUAGGAUAUACUAAAGAAAUAAAAAUAAAUAAAGAACAUGAGGAUCACCCAUGUAGAAGGGCCAAGAA [Merkheperre]” was run?
Answer: 54.4 nM

Question: Which “apparent KD of MS2 coat protein” value does the source give for “AGUCGGCGAGGAUAUACAUGAGGAUCACCCAUGUGAGAGAAAAAAGUGAGUUAGACAAGUAGAAGGCGCUGACA [JL Lego Mod 7]” here?
Answer: 44.1 nM

Question: How did the “apparent KD of MS2 coat protein” value turn out when “AUAAAACAUGAGGAUCACCCAUGUGAGGAUAUGCGAAAAUAAAUAAAAUAAAAUAAAAGCAGAAGGUACAAAUA [LROPPY Exclusion 1 - v04_deltaG=2.5 breakup some As]” was run?
Answer: 29.3 nM

Question: How did the “apparent KD of MS2 coat protein” value turn out when “AAUAAACAUGAGGAUCACCCAUGUGAGGAUAUGGUAUUAUUAGGACAGUAAUGAUAUACCAGAAGGCACAAAUA [JR_Exc001_Sub1104]” was run?
Answer: 36.9 nM

Question: Which “apparent KD of MS2 coat protein” value does the source give for “ACGUACUCAGGAUAUACGAACAUGUCAAAAGACGUGAAGGGACAUGAGGAUCACCCAUGUAGAAGGGAGUACGA [Mat - Exclusion 2 - JL mod - D6]” here?
Answer: 33.6 nM

Question: With “CUCAAGUCAGGAUAUUAAAGAAAAGAAGAGAAAGAAAAGAAUAAGAAGGGACAUGAGGAUCACCCAUGUAAGAA [EteRNA is fun!]” as the sequence, how does the “apparent KD of MS2 coat protein” value read?
Answer: 57.3 nM

Question: Which “apparent KD of MS2 coat protein” value does the source give for “GAAAAGUCAGGAUAUAUGCGAAAAAUAAAAAAAAUAAAAACAUAGAAGGGACAUGAGGAUCACCCAUGUUAAAA [Mat - Exclusion 4 - Mayanna - D134]” here?
Answer: 41.6 nM

Question: With “AGUUGGCGAGGAUAUACAUGAGGAUCACCCAUGUAAGAGAAAAAAAGGAGAAAAAAAAGUAGAAGGCGCUGACA [Mat - Exclusion 3 - Lego mod - D45]” as the sequence, how does the “apparent KD of MS2 coat protein” value read?
Answer: 35.4 nM

Question: How did the “apparent KD of MS2 coat protein” value turn out when “AACAGUACAGGAUAUACAUGAGGAUCACCCAUGUGAAAAUUAAGUGGCGAACCACAAUGUAGAAGGGUACUGGA [Mat - Exclusion 3 - Eli mod - D47]” was run?
Answer: 81.9 nM

Question: With “AGGAGACAUGAGGAUCACCCAUGUUAGGAUAUGAACGAAAUAAAAUAAAAAUAAAAGUUCAGAAGGAACGAAAA [Mat - Exclusion 1 - Eli mod - D10]” as the sequence, how does the “apparent KD of MS2 coat protein” value read?
Answer: 34.6 nM

Question: Which “apparent KD of MS2 coat protein” value does the source give for “AAAUGCUGAGGAUAUACAUGAGGAUCACCCAUGUAAAAUAAAUAAUGAGUGUAAACGUGUAGAAGGCAGCAUAA [Exclusion 3.14c (FMN+ favored )]” here?
Answer: 41.1 nM

Question: For “UAUACGUGAGGAUAUGCGAAUACCACGUUAGACAUAUAGACGCAGAAGGCACAUGAGGAUCACCCAUGUGAACC [JR_Exc004_Sub315]”, which “apparent KD of MS2 coat protein” value is on record?
Answer: 21.4 nM

Question: Which “apparent KD of MS2 coat protein” value does the source give for “AAGAACCGAGGAUAUACAUGAGGAUCACCCAUGUAAAAGAAAGAAAAGGGAAAGAAAAGUAGAAGGCGGAAGAA [Aakheperenre Thutmose II]” here?
Answer: 42.8 nM

Question: How did the “apparent KD of MS2 coat protein” value turn out when “GUAGUGUGAGGAUAUGGAAAGAAGAAGAAAAGGUAGAAAAACUAGAAGGCACAUGAGGAUCACCCAUGUAAGAA [JR_Exc004_Sub1710]” was run?
Answer: 29.1 nM

Question: How did the “apparent KD of MS2 coat protein” value turn out when “AAAGAUGCAGGAUAUACAUGAGGAUCACCCAUGUUAGACCAGAAAUGGGAAAAAGAAAGUAGAAGGGCAUAAAA [Ex 3 May 33]” was run?
Answer: 18.2 nM

System: MS2 coat protein
Test: apparent KD of MS2 coat protein, switch OFF state (with FMN for OFF switches, without FMN for ON switches); designed switch direction (-1 OFF switch, 1 ON switch): -1; higher = weaker reporter binding
Conditions: FMN input: 0 or 200 uM; Eterna round: R93 (includes R88 designs)
Summary of the method: as §1

Question: Which “apparent KD of MS2 coat protein” value does the source give for “AAGAAGGUAGGAUAUACUAAAGAAAUAAAAAUAAAUAAAGAACAUGAGGAUCACCCAUGUAGAAGGGCCAAGAA [Merkheperre]” here?
Answer: 50.8 nM

Question: Which “apparent KD of MS2 coat protein” value does the source give for “AGUCGGCGAGGAUAUACAUGAGGAUCACCCAUGUGAGAGAAAAAAGUGAGUUAGACAAGUAGAAGGCGCUGACA [JL Lego Mod 7]” here?
Answer: 172 nM

Question: Which “apparent KD of MS2 coat protein” value does the source give for “AUAAAACAUGAGGAUCACCCAUGUGAGGAUAUGCGAAAAUAAAUAAAAUAAAAUAAAAGCAGAAGGUACAAAUA [LROPPY Exclusion 1 - v04_deltaG=2.5 breakup some As]” here?
Answer: 40.2 nM

Question: For “AAUAAACAUGAGGAUCACCCAUGUGAGGAUAUGGUAUUAUUAGGACAGUAAUGAUAUACCAGAAGGCACAAAUA [JR_Exc001_Sub1104]”, which “apparent KD of MS2 coat protein” value is on record?
Answer: 53.5 nM

Question: “ACGUACUCAGGAUAUACGAACAUGUCAAAAGACGUGAAGGGACAUGAGGAUCACCCAUGUAGAAGGGAGUACGA [Mat - Exclusion 2 - JL mod - D6]” was tested. Which “apparent KD of MS2 coat protein” value did it give?
Answer: 148 nM

Question: With “CUCAAGUCAGGAUAUUAAAGAAAAGAAGAGAAAGAAAAGAAUAAGAAGGGACAUGAGGAUCACCCAUGUAAGAA [EteRNA is fun!]” as the sequence, how does the “apparent KD of MS2 coat protein” value read?
Answer: 30.9 nM

Question: “GAAAAGUCAGGAUAUAUGCGAAAAAUAAAAAAAAUAAAAACAUAGAAGGGACAUGAGGAUCACCCAUGUUAAAA [Mat - Exclusion 4 - Mayanna - D134]” was tested. Which “apparent KD of MS2 coat protein” value did it give?
Answer: 29.7 nM

Question: “AGUUGGCGAGGAUAUACAUGAGGAUCACCCAUGUAAGAGAAAAAAAGGAGAAAAAAAAGUAGAAGGCGCUGACA [Mat - Exclusion 3 - Lego mod - D45]” was tested. Which “apparent KD of MS2 coat protein” value did it give?
Answer: 41.9 nM

Question: Which “apparent KD of MS2 coat protein” value does the source give for “AACAGUACAGGAUAUACAUGAGGAUCACCCAUGUGAAAAUUAAGUGGCGAACCACAAUGUAGAAGGGUACUGGA [Mat - Exclusion 3 - Eli mod - D47]” here?
Answer: 25.9 nM

Question: For “AGGAGACAUGAGGAUCACCCAUGUUAGGAUAUGAACGAAAUAAAAUAAAAAUAAAAGUUCAGAAGGAACGAAAA [Mat - Exclusion 1 - Eli mod - D10]”, which “apparent KD of MS2 coat protein” value is on record?
Answer: 56.6 nM

Question: For “AAAUGCUGAGGAUAUACAUGAGGAUCACCCAUGUAAAAUAAAUAAUGAGUGUAAACGUGUAGAAGGCAGCAUAA [Exclusion 3.14c (FMN+ favored )]”, which “apparent KD of MS2 coat protein” value is on record?
Answer: 19.5 nM

Question: Which “apparent KD of MS2 coat protein” value does the source give for “UAUACGUGAGGAUAUGCGAAUACCACGUUAGACAUAUAGACGCAGAAGGCACAUGAGGAUCACCCAUGUGAACC [JR_Exc004_Sub315]” here?
Answer: 16.4 nM

Question: How did the “apparent KD of MS2 coat protein” value turn out when “AAGAACCGAGGAUAUACAUGAGGAUCACCCAUGUAAAAGAAAGAAAAGGGAAAGAAAAGUAGAAGGCGGAAGAA [Aakheperenre Thutmose II]” was run?
Answer: 55.5 nM

Question: How did the “apparent KD of MS2 coat protein” value turn out when “GUAGUGUGAGGAUAUGGAAAGAAGAAGAAAAGGUAGAAAAACUAGAAGGCACAUGAGGAUCACCCAUGUAAGAA [JR_Exc004_Sub1710]” was run?
Answer: 20.3 nM

Question: With “AAAGAUGCAGGAUAUACAUGAGGAUCACCCAUGUUAGACCAGAAAUGGGAAAAAGAAAGUAGAAGGGCAUAAAA [Ex 3 May 33]” as the sequence, how does the “apparent KD of MS2 coat protein” value read?
Answer: 119 nM

System: MS2 coat protein
Test: apparent KD of MS2 coat protein, switch ON state; designed switch direction (-1 OFF switch, 1 ON switch): 1; higher = weaker reporter binding
Conditions: FMN input: 0 or 200 uM; Eterna round: R93 (includes R88 designs)
Summary of the method: as §1

Question: With “GAAAAACAUGAGGAUCACCCAUGUAGAAACAUGGGAGGAUAUACAAAGACGAAAGUCAAAGUAGAAGGCCUAAAAA [Mat - Same State 1 - Mod - D160]” as the sequence, how does the “apparent KD of MS2 coat protein” value read?
Answer: 149 nM

Question: Which “apparent KD of MS2 coat protein” value does the source give for “AACAAUCUAUCUGAGGAUAUCAAGUCAAAGACAUGAGGAUCACCCAUGUUGCAGGAAACUGCUCUUGAGAAGGCAGAUAGAUUGA [SS2: 1130]” here?
Answer: 9.84 nM
